The Kd is a measure of binding affinity in units of concentration. The low end stands for a tighter complex, the high end for a looser complex.

This is an account of results in article PMC4893650 (Theranostics, 2016).

This assay addresses purified HER2 protein (human epidermal growth factor receptor-2) (human, UniProt P04626 23-652). Put plainly: SPR. On the technique in general: SPR reads the build-up and loss of mass on a sensor chip optically.

CDTFPYLGWWNPNEYRY [peptide P51] returned a Kd of 0.0186 µM.
